In this test the test system is tip cell colonies. In words: Reconstitution of iUB organoids from tip cell colonies. It is filed as cell-based, human. As to conditions: organoid medium with Wnt3a conditioned medium and R-spondin 1 in place of CHIR99021. As to the method:
Hydrogel was dissolved with Cell Recovery Solution (BD Biosciences) for 1 h at 4° C. to detach day 7 tip cell colonies. After washing with additional Cell Recovery Solution, the tip cell colonies were centrifuged at 500 g for 5 min at room temperature. Essential 6 medium containing 0.1 μM LDN193189, 100 ng/ml GDNF, 0.1 μM TTNPB, 200 ng/ml FGF8, 1 μM CHIR99021 or 10% Afamin/Wnt3a conditioned medium (MBL), 200 ng/ml R-spondin 1 (R&D systems), 50 ng/ml EGF, 200 ng/ml FGF1 and 10% Matrigel was applied to the tube including tip cell colonies. After pipetting gently with a wide-mouth micropipette (BMBio) not to break colonies, the suspension was distributed to low-attachment 35 mm dish (Sumitomo Bakelite) at 2 mL/dish. The medium was refreshed every 2 days. On day 4, each colony was placed onto one well of low-attachment 96-well plates in the same medium. After an additional 6 days, the tip region was separated from the reconstituted iUB organoid and treated with the same medium for 35 days.

B1: R-spondin 1: Wnt signaling activator (R&D systems) (protein, UniProt Q2MKA7 21-263, looked up)
R-spondin-1: SRGIKGKRQRRISAEGSQACAKGCELCSEVNGCLKCSPKLFILLERNDIRQVGVCLPSCPPGYFDARNPDMNKCIKCKIEHCEACFSHNFCTKCKEGLYLHKGRCYPACPEGSSAANGTMECSSPAQCEMSEWSPWGPCSKKQQLCGFRRGSEERTRRVLHAPVGDHAACSDTKETRRCTVRRVPCPEGQKRRKGGQGRRENANRNLARKESKEAGAGSRRRKGQQQQQQQGTVGPLTSAGPA
On to B1, for which the “reconstitution of iUB organoids from tip cell colonies” value is recorded as “iUB organoids could be reconstituted from tip cell colonies derived from any iPS cell lines”.

The values are drawn from patent US12577536B2, “Method for isolating ureteric bud tip cells” (KYOTO UNIVERSITY, priority 2019, dated 2026).
